# Data: patent publication US20220290167
# T1: recombinant B. taurus beta casein with HA tag, 6 histidine tag and HDEL peptide, produced by pMOZ702 in N. benthamiana leaf
# T1 chain: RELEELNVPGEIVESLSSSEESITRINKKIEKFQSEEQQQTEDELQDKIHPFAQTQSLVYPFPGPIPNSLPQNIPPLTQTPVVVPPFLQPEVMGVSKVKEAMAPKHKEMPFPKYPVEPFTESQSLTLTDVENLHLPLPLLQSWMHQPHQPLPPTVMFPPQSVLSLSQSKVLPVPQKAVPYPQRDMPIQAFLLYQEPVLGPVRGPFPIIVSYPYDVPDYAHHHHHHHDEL
# B1: recombinant B. taurus Fam20C expressed from pMOZ14 (protein)
# chain: MLLPKLERSAARPSGEPGCSCAQPAAEAAAPGWAQARGHPGGELEAAASAAGDAGWPNKHTLRILQDFSSDPSSNLTSHSLEKLPPAAEAAEGAPPGQDPGVRRPPDPAHRPLPRDPGPRGPVLPPGLSGDGSLLTRLFQHPLYQVPIPPLTEGDVLFNVNSDIRFNPKAATAENPDWPHEGPEDEFLPTGEAAVDSYPNWLKFHIGINRYELYSRHNPAVGALLQDLGTQKITSVAMKSGGTQLKLIMTFQNYGQALFKPMKQTREQETPPDFFYFSDYERHNAEIAAFHLDRILDFRRVPPVAGRLVNMTKEIRDVTRDKKLWRTFFISPANNVCFYGECSYYCSTEHALCGKPDQIEGSLAAFLPDLALAKRKTWRNPWRRSYHKRKKAEWEVDPDYCEEVRQTPPYDSSHRLLDVMDMTIFDFLMGNMDRHHYETFEKFGNETFIIHLDNGRGFGKHSHDELSILVPLQQCCRIRRSTYLRLQLLAQEEHRLSLLMAEALRADRVAPVLFQPHLEALDRRLRIVLRAVGDCVEKDGLHSVVEDDLGPEHRAAAGRHDEL
# B2: recombinant H. sapiens Fam20C expressed from pMOZ11 (protein)
# chain: LDLLPRLERRGARPSGEPGCSCAQPAAEVAAPGWAQVRGRPGEPPAASSAAGDAGWPNKHTLRILQDFSSDPSSNLSSHSLEKLPPAAEPAERALRGRDPGALRPHDPAHRPLLRDPGPRRSESPPGPGGDASLLARLFEHPLYRVAVPPLTEEDVLFNVNSDTRLSPKAAENPDWPHAGAEGAEFLSPGEAAVDSYPNWLKFHIGINRYELYSRHNPAIEALLHDLSSQRITSVAMKSGGTQLKLIMTFQNYGQALFKPMKQTREQETPPDFFYFSDYERHNAEIAAFHLDRILDFRRVPPVAGRMVNMTKEIRDVTRDKKLWRTFFISPANNICFYGECSYYCSTEHALCGKPDQIEGSLAAFLPDLSLAKRKTWRNPWRRSYHKRKKAEWEVDPDYCEEVKQTPPYDSSHRILDVMDMTIFDFLMGNMDRHHYETFEKFGNETFIIHLDNGRGFGKYSHDELSILVPLQQCCRIRKSTYLRLQLLAKEEYKLSLLMAESLRGDQVAPVLYQPHLEALDRRLRVVLKAVRDCVERNGLHSVVDDDLDTEHRAASARHDEL
# B3: recombinant H. sapiens Fam20A expressed from pMOZ12 (protein)
# chain: QLRPRERPRGCPCTGRASSLARDSAAAASDPGTIVHNFSRTEPRTEPAGGSHSGSSSKLQALFAHPLYNVPEEPPLLGAEDSLLASQEALRYYRRKVARWNRRHKMYREQMNLTSLDPPLQLRLEASWVQFHLGINRHGLYSRSSPVVSKLLQDMRHFPTISADYSQDEKALLGACDCTQIVKPSGVHLKLVLRFSDFGKAMFKPMRQQRDEETPVDFFYFIDFQRHNAEIAAFHLDRILDFRRVPPTVGRIVNVTKEILEVTKNEILQSVFFVSPASNVCFFAKCPYMCKTEYAVCGNPHLLEGSLSAFLPSLNLAPRLSVPNPWIRSYTLAGKEEWEVNPLYCDTVKQIYPYNNSQRLLNVIDMAIFDFLIGNMDRHHYEMFTKFGDDGFLIHLDNARGFGRHSHDEISILSPLSQCCMIKKKTLLHLQLLAQADYRLSDVMRESLLEDQLSPVLTEPHLLALDRRLQTILRTVEGCIVAHGQQSVIVDGPVEQLAPDSGQANLTSHDEL
# B4: recombinant B. taurus Fam20A expressed from pMOZ15 (protein)
# chain: MHVSSHLGPRVRSRLQPRERPLGCPCARRAASPAPGPAPSAPRRVEPSGGGDPGSKLRALFAHPLYNEPEEPPLLGPEDSLLAGPEALRYYRRKVARWNRRRKMYKEQLNLTSPEPPVQLRQEASWVQFHLGINRHGLYPRSSPVVSKLLQDMRHFPTISADYSQDEKALLGACDCSQIVKPSGVHLKLVLRFSDFGKAMFKPMRQQRDEETPEDFFYFIDFQRHNAEIAAFHLDRILDFRRVPPTVGRLVNVTREILEVTRNEILQSVFFVSPANNVCFFAKCPYMCKTEYAVCGSPHLLEGSLSAFLPSLNLAPRFSMPSPWIRSYSLAGREEWEVNPLYCEAVKQAYPHNSSSRLLNIIDMAIFDFLIGNMDRHHYEMFTKFGEDGFLIHLDNARGFGRHSHDEVSILAPLFQCCRIKRKTLLHLQLLAQADYRLSDVMRESLLEDQLSPVLTEPHLLALDRRLQTVLRTVQDCIEAHGEQSVVADGPVGQWAPDSSRANATSHDEL
# Target: T1, recombinant B. taurus beta casein with …
protein,measurement,value
B1,"Western blot band migration of beta casein; BtFam20C coexpressed together with BtFam20A in tobacco leaf (FIG. 20, lane 7, '2 bovine kinases')","In lanes containing beta casein coexpressed with 1 human kinase, 2 human kinases, 1 bovine kinase or 2 bovine kinases the bands are shifted upward on the gel relative to the sample transformed with only beta casein"
B2,"Western blot band migration of beta casein; HsFam20C alone coexpressed in tobacco leaf (FIG. 20, lane 5, '1 human kinase')","In lanes containing beta casein coexpressed with 1 human kinase, 2 human kinases, 1 bovine kinase or 2 bovine kinases the bands are shifted upward on the gel relative to the sample transformed with only beta casein"
same,"Western blot band migration of beta casein; HsFam20C coexpressed together with HsFam20A in tobacco leaf (FIG. 19, lanes 3 and 4)",In lanes containing beta casein coexpressed with the human kinases the bands are shifted upward on the gel relative to the sample transformed with only beta casein
same,"Western blot band migration of beta casein; HsFam20C coexpressed together with HsFam20A in tobacco leaf (FIG. 20, lane 8, '2 human kinases')","In lanes containing beta casein coexpressed with 1 human kinase, 2 human kinases, 1 bovine kinase or 2 bovine kinases the bands are shifted upward on the gel relative to the sample transformed with only beta casein"
B3,"Western blot band migration of beta casein; HsFam20A coexpressed together with HsFam20C in tobacco leaf (FIG. 19, lanes 3 and 4)",In lanes containing beta casein coexpressed with the human kinases the bands are shifted upward on the gel relative to the sample transformed with only beta casein
same,"Western blot band migration of beta casein; HsFam20A coexpressed together with HsFam20C in tobacco leaf (FIG. 20, lane 8, '2 human kinases')","In lanes containing beta casein coexpressed with 1 human kinase, 2 human kinases, 1 bovine kinase or 2 bovine kinases the bands are shifted upward on the gel relative to the sample transformed with only beta casein"
B4,"Western blot band migration of beta casein; BtFam20A coexpressed together with BtFam20C in tobacco leaf (FIG. 20, lane 7, '2 bovine kinases')","In lanes containing beta casein coexpressed with 1 human kinase, 2 human kinases, 1 bovine kinase or 2 bovine kinases the bands are shifted upward on the gel relative to the sample transformed with only beta casein"
